Laboratory results published in the supplement of paper PMC11246515.
± gives the standard deviation of the averaged measurements.

Experiment: total protein half-life in vivo (active degradation + dilution); higher = more stable protein
[1] = E. coli NCM3722 delta-clpP, growth: N-lim chemostat, doubling time 6 h
[2] = E. coli NCM3722 delta-hslV, growth: N-lim chemostat, doubling time 6 h
[3] = E. coli NCM3722 delta-smpB, growth: N-lim chemostat, doubling time 6 h
[4] = wild type E. coli NCM3722, growth: C-lim chemostat, doubling time 3 h
[5] = wild type E. coli NCM3722, growth: C-lim chemostat, doubling time 6 h
[6] = wild type E. coli NCM3722, growth: C-lim chemostat, doubling time 12 h
[7] = wild type E. coli NCM3722, growth: N-lim chemostat, doubling time 6 h
[8] = wild type E. coli NCM3722, growth: N-lim chemostat, doubling time 12 h
[9] = E. coli NCM3722 delta-clpP delta-lon delta-hslV, growth: N-lim chemostat, doubling time 6 h
[10] = E. coli NCM3722 delta-lon, growth: N-lim chemostat, doubling time 6 h
[11] = wild type E. coli NCM3722, growth: P-lim chemostat, doubling time 6 h
[12] = wild type E. coli NCM3722, growth: P-lim chemostat, doubling time 12 h

MKKIAAISLISIFIMSGCAVHNDETSIGKFGLAYKSNIQRKLDNQYYTEAEASLARGRISGAENIVKNDATHFCVTQGKKMQIVELKTEGVGLHGVARLTFKCGE
total protein half-life in vivo [1]: 5.75 ± 0.084 h
total protein half-life in vivo [2]: 6.67 ± 0.98 h
total protein half-life in vivo [3]: 6.04 ± 0.45 h
total protein half-life in vivo [4]: 3.03 ± 0.37 h
total protein half-life in vivo [5]: 5.62 ± 0.76 h
total protein half-life in vivo [6]: 11.3 ± 0.14 h
total protein half-life in vivo [7]: 6.8 ± 0.99 h
total protein half-life in vivo [8]: 13.1 ± 1.9 h

MKKIAFGCDHVGFILKHEIVAHLVERGVEVIDKGTWSSERTDYPHYASQVALAVAGGEVDGGILICGTGVGISIAANKFAGIRAVVCSEPYSAQLSRQHNDTNVLAFGSRVVGLELAKMIVDAWLGAQYEGGRHQQRVEAITAIEQRRN
total protein half-life in vivo [9]: 4.69 ± 0.15 h
total protein half-life in vivo [2]: 3.77 ± 0.19 h
total protein half-life in vivo [10]: 3.82 ± 0.13 h
total protein half-life in vivo [3]: 3.45 ± 0.1 h
total protein half-life in vivo [4]: 3.05 ± 0.37 h
total protein half-life in vivo [5]: 5.6 ± 0.41 h
total protein half-life in vivo [6]: 9.29 ± 1.4 h
total protein half-life in vivo [7]: 3.725 ± 0.033 h
total protein half-life in vivo [8]: 5.17 ± 1 h
total protein half-life in vivo [11]: 5.32 ± 0.18 h
total protein half-life in vivo [12]: 10.2 ± 0.91 h

MKKIAITCALLSSLVASSVWADAASDLKSRLDKVSSFHASFTQKVTDGSGAAVQEGQGDLWVKRPNLFNWHMTQPDESILVSDGKTLWFYNPFVEQATATWLKDATGNTPFMLIARNQSSDWQQYNIKQNGDDFVLTPKASNGNLKQFTINVGRDGTIHQFSAVEQDDQRSSYQLKSQQNGAVDAAKFTFTPPQGVTVDDQRK
total protein half-life in vivo [9]: 4.62 ± 0.5 h
total protein half-life in vivo [1]: 5.76 ± 1 h
total protein half-life in vivo [2]: 7.06 ± 1.3 h
total protein half-life in vivo [4]: 3.364 ± 0.025 h
total protein half-life in vivo [5]: 5.679 ± 0.056 h
total protein half-life in vivo [6]: 9.08 ± 0.39 h
total protein half-life in vivo [7]: 6.25 ± 0.41 h
total protein half-life in vivo [8]: 12.5 ± 0.7 h
total protein half-life in vivo [11]: 5.978 ± 0.007 h
total protein half-life in vivo [12]: 12.124 ± 0.011 h

MKKIECACNFLMDKDAQGYIDLSDLDLTSCHFKGDVISKVSFLSSNLQHVTFECKEIGDCNFTTAIVDNVIFRCRRLHNVIFIKASGECVDFSKNILDTVDFSQSQLGHSNFRECQIRNSNFDNCYLYASHFTRAEFLSAKEISFIKSNLTAVMFDYVRMSTGNFKDCITEQLELTIDYSDIFWNEDLDGYINNIIKMIDTLPDNAMILKSVLAVKLVMQLKILNIVNKNFIENMKKIFSHCPYIKDPIIRSYIHSDEDNKFDDFMRQHRFSEVNFDTQQMIDFINRFNTNKWLIDKNNNFFIQLIDQALRSTDDMIKANVWHLYKEWIRSDDVSPIFIETEDNLRTFNTNELTRNDNIFILFSSVDDGPVMVVSSQRLHDMLNPTKDTNWNSTYIYKSRHEMLPVNLTQETLFSSKSHGKYALFPIFTASWRAHRIMNKGV
total protein half-life in vivo [6]: 11.2 h

MKKIICLVITLLMTLPVYAKLTAHEEARINAMLEGLAQKKDLIFVRNGDEHTCYEAVSHLRLKLGNTRNRIDTAEQFIDKVASSSSITGKPYIVKIPGKSDENAQPFLHALIAQTDKTVPAEGN
total protein half-life in vivo [6]: 3.18 h

MKKILTTPIKAEDLQDIRVGDVIYLTGTLVTCRDVCHRRLIELKRPIPYDLNGKAIFHAGPIVRKNGDKWEMVSVGPTTSMRMESFEREFIEQTGVKLVVGKGGMGPLTEEGCQKFKALHVIFPAGCAVLAATQVEEIEEVHWTELGMPESLWVCRVKEFGPLIVSIDTHGNNLIAENKKLFAERRDPIVEEICEHVHYIK [P0AC35]
total protein half-life in vivo [9]: 6.21 h

MKKIPLGTTDITLSRMGLGTWAIGGGPAWNGDLDRQICIDTILEAHRCGINLIDTAPGYNFGNSEVIVGQALKKLPREQVVVETKCGIVWERKGSLFNKVGDRQLYKNLSPESIREEVAASLQRLGIDYIDIYMTHWQSVPPFFTPIAETVAVLNELKSEGKIRAIGAANVDADHIREYLQYGELDIIQAKYSILDRAMENELLPLCRDNGIVVQVYSPLEQGLLTGTITRDYVPGGARANKVWFQRENMLKVIDMLEQWQPLCARYQCTIPTLALAWILKQSDLISILSGATAPEQVRENVAALNINLSDADATLMREMAEALER
total protein half-life in vivo [9]: 3.71 ± 1.3 h
total protein half-life in vivo [2]: 4.29 ± 0.48 h
total protein half-life in vivo [3]: 4.19 ± 0.18 h
total protein half-life in vivo [4]: 2.96 ± 0.2 h
total protein half-life in vivo [5]: 5.64 ± 1.4 h
total protein half-life in vivo [6]: 8.09 ± 1.9 h
total protein half-life in vivo [7]: 3.97 ± 0.2 h
total protein half-life in vivo [8]: 6.75 h
total protein half-life in vivo [11]: 6.344 ± 0.018 h
total protein half-life in vivo [12]: 11.9 ± 0.44 h

MKKKILAFGLISALFCSTPAMADMNRTTKGALLGAGVGLLTGNGVNGVLKGAAVGAGVGAVTEKGRDGKNARKGAKVGAAVGAVTGVLTGNGLEGAIKGAVIGGTGGAILGKMK [Q7DFV3]
total protein half-life in vivo [2]: 1.46 ± 0.28 h
total protein half-life in vivo [3]: 1.39 h
total protein half-life in vivo [4]: 1.42 ± 0.11 h
total protein half-life in vivo [5]: 1.67 h
total protein half-life in vivo [7]: 1.78 ± 0.36 h
total protein half-life in vivo [8]: 1.87 h
total protein half-life in vivo [11]: 2.752 ± 0.007 h
total protein half-life in vivo [12]: 5.14 ± 0.75 h

MKKKRPVLQDVADRVGVTKMTVSRFLRNPEQVSVALRGKIAAALDELGYIPNRAPDILSNATSRAIGVLLPSLTNQVFAEVLRGIESVTDAHGYQTMLAHYGYKPEMEQERLESMLSWNIDGLILTERTHTPRTLKMIEVAGIPVVELMDSKSPCLDIAVGFDNFEAARQMTTAIIARGHRHIAYLGARLDERTIIKQKGYEQAMLDAGLVPYSVMVEQSSSYSSGIELIRQARREYPQLDGVFCTNDDLAVGAAFECQRLGLKVPDDMAIAGFHGHDIGQVMEPRLASVLTPRERMGSIGAERLLARIRGESVTPKMLDLGFTLSPGGSI [P0ACP5]
total protein half-life in vivo [9]: 6.42 ± 0.18 h
total protein half-life in vivo [2]: 5.79 ± 0.47 h
total protein half-life in vivo [10]: 5.99 ± 1 h
total protein half-life in vivo [3]: 5.75 ± 0.31 h
total protein half-life in vivo [4]: > 4 h
total protein half-life in vivo [5]: 6.6 ± 0.52 h
total protein half-life in vivo [7]: 6.14 ± 0.46 h
total protein half-life in vivo [8]: 14.4 ± 1.9 h
total protein half-life in vivo [12]: > 16 h

MKKKTTLSEEDQALFRQLMAGTRKIKQDTIVHRPQRKKISEVPVKRLIQEQADASHYFSDEFQPLLNTEGPVKYVRPDVSHFEAKKLRRGDYSPELFLDLHGLTQLQAKQELGALIAACRREHVFCACVMHGHGKHILKQQTPLWLAQHPHVMAFHQAPKEYGGDAALLVLIEVEEWLPPELP [P0A8B2]
total protein half-life in vivo [9]: 3.99 ± 0.33 h
total protein half-life in vivo [1]: 2.898 ± 0.019 h
total protein half-life in vivo [2]: 3.03 ± 0.56 h
total protein half-life in vivo [3]: 3.68 ± 0.36 h
total protein half-life in vivo [4]: 2.46 ± 0.48 h
total protein half-life in vivo [5]: 3.84 ± 0.16 h
total protein half-life in vivo [6]: 5.34 h
total protein half-life in vivo [7]: 2.99 ± 0.086 h
total protein half-life in vivo [8]: 3.87 ± 0.36 h
total protein half-life in vivo [11]: 3.06 ± 0.1 h
total protein half-life in vivo [12]: 6 ± 0.6 h
